This is an account of results in paper PMC11381358, “Phosphorylation of the nuclear poly(A) binding protein (PABPN1) during mitosis protects mRNA from hyperadenylation and maintains transcriptome dynamics”.

The target in the series is T1, His-MBP-PABPN1 WT (human, UniProt Q86U42 1-306).
T1 sequence: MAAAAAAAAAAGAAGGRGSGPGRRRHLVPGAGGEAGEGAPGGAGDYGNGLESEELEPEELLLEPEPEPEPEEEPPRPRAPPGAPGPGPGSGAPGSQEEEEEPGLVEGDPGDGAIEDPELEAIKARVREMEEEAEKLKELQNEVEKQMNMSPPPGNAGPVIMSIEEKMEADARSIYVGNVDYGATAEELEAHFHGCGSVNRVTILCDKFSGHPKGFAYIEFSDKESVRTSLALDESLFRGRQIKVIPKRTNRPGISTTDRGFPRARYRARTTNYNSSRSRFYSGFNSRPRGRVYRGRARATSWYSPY
The series is described as follows: filter binding; 50 mM Tris-HCl pH 8.0, 100 mM KCl, 5 mM MgCl2, 2 mM EDTA, 10% glycerol, 0.2 mg/ml BSA, 0.01% NP-40, 0.5 mM DTT, 2 U/ul RNase OUT; 500 pM RNA, protein 62.5 nM-4. Particulars: protein: recombinant; tags: N-terminal His-MBP (uncleaved); label: 5'-32P; single strand.

As to AAAAAAAAAAAAAAAAAAAAAAAAAAAAAA (ssRNA) [poly(A)30], the binding result is given as “binds”.
